Measured values from patent US20090305309A1.

Target: Src substrate peptide … derived from p130cas, tyrosine-phosphorylated by Src
Test: cell-based or functional assay

cyan-to-yellow emission ratio of the purified Src reporter after in vitro phosphorylation by Src: 25%
emission ratio change of the Src reporter in HeLa cells on EGF stimulation: 25 to 35%
emission ratio change of the monomeric (A206K CFP/YFP) Src reporter in response to Src kinase in vitro: 43%
Substance: c-Src SH2 domain of the Src reporter
